From US20250043302A1, “MUTATED HYDROXYPHENYLPYRUVATE DIOXYGENASE POLYPEPTIDE, AND CODING GENE AND USE THEREOF” (BEIJING DABEINONG BIOTECHNOLOGY CO., LTD., priority 2021, published 2025)

What was measured:
Format in all cases: in vivo
[1] = test system: Arabidopsis thaliana T1 plants; assay: Topramezone tolerance of transgenic Arabidopsis thaliana T1 plants (spray, bleached leaf area grade, damage score); conditions: 7 DAT, Table 4; for Classification and statistics of the grade of pesticide damage: Grade 0 / Classification and statistics of the grade of pesticide damage: Grade 1 / Classification and statistics of the grade of pesticide damage: Grade 2 / Classification and statistics of the grade of pesticide damage: Grade 3: number of plants; for Scores: pesticide damage score 0-100
Method in brief: (§1)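 Damage was assessed by bleaching grade (0 none; 1 <50%; 2 >50%; 3 100% of leaf area) one week after spraying. Sprays on 18-day-old T1 and wild-type plants used field-rate multiples: topramezone 25–200, isoxaflutole 35–280, mesotrione 52.5–420 g ai/ha.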

[2] = test system: Arabidopsis thaliana T1 plants; assay: Mesotrione tolerance of transgenic Arabidopsis thaliana T1 plants (spray, bleached leaf area grade, damage score); set-up: Scores: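 damage score 0-100 computed as Σ(N×S)/(T×M)×100 over grades 0-3 with higher meaning more damage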; conditions: Arabidopsis thaliana T1 plants; for Grade 0 (classification and statistics of the grade of pesticide damage; number of plants) / Grade 1 (classification and statistics of the grade of pesticide damage; number of plants) / Grade 2 (classification and statistics of the grade of pesticide damage; number of plants) / Grade 3 (classification and statistics of the grade of pesticide damage; number of plants): 16 plants
Method in brief: as §1

[3] = test system: Arabidopsis thaliana T1 plants; assay: Isoxaflutole tolerance of transgenic Arabidopsis thaliana T1 plants (spray, bleached leaf area grade, damage score); set-up: Scores (pesticide damage): scale not given here; conditions: spray, Arabidopsis thaliana T1 plants; for Classification and statistics of the grade of pesticide damage: Grade 0 (number of plants) / Classification and statistics of the grade of pesticide damage: Grade 1 (number of plants) / Classification and statistics of the grade of pesticide damage: Grade 2 (number of plants) / Classification and statistics of the grade of pesticide damage: Grade 3 (number of plants): 16 plants
Method in brief: as §1

[4] = isoxaflutole 35 g ai/ha (0.5x field concentration)
[5] = isoxaflutole 70 g ai/ha (1x field concentration)

Molecule	Classification and statistics of the grade of pesticide damage: Grade 0 ([1]; topramezone 25 g ai/ha (1×))	Classification and statistics of the grade of pesticide damage: Grade 1 ([1]; topramezone 25 g ai/ha (1×))	Classification and statistics of the grade of pesticide damage: Grade 2 ([1]; topramezone 25 g ai/ha (1×))	Classification and statistics of the grade of pesticide damage: Grade 3 ([1]; topramezone 25 g ai/ha (1×))	Classification and statistics of the grade of pesticide damage: Grade 0 ([1]; topramezone 100 g ai/ha (4×))	Classification and statistics of the grade of pesticide damage: Grade 1 ([1]; topramezone 100 g ai/ha (4×))	Classification and statistics of the grade of pesticide damage: Grade 2 ([1]; topramezone 100 g ai/ha (4×))	Classification and statistics of the grade of pesticide damage: Grade 3 ([1]; topramezone 100 g ai/ha (4×))	Scores ([1]; topramezone 25 g ai/ha (1×))	Scores ([1]; topramezone 100 g ai/ha (4×))	Resistance evaluation ([1]; topramezone 25 g ai/ha (1×))	Resistance evaluation ([1]; topramezone 100 g ai/ha (4×))	Resistance evaluation ([2]; mesotrione 52.5 g ai/ha)	Scores ([2]; mesotrione 52.5 g ai/ha)	Grade 0 (classification and statistics of the grade of pesticide damage; number of plants) ([2]; mesotrione 52.5 g ai/ha)	Grade 1 (classification and statistics of the grade of pesticide damage; number of plants) ([2]; mesotrione 52.5 g ai/ha)	Grade 2 (classification and statistics of the grade of pesticide damage; number of plants) ([2]; mesotrione 52.5 g ai/ha)	Grade 3 (classification and statistics of the grade of pesticide damage; number of plants) ([2]; mesotrione 52.5 g ai/ha)	Resistance evaluation ([2]; mesotrione 105 g ai/ha)	Scores ([2]; mesotrione 105 g ai/ha)	further results
BnHPPD-02: nucleotide sequence encoding wild-type Brassica napus HPPD; vector DBN11742 (nucleic acid, BnHPPD-02 Nucleotide Sequence, vector DBN11742) DNA: ATGGGACATGAAAACGCGGCAGTGTGTGAAACTCAACAACATGATGACGCCGCCTCCCCGGGGTTTAAACTTGTCGGGTTCTCAAAATTTGTTAGGAAGAATCCAAAGTCTGACAAGTTCAAGGTGAAACGCTTCCACCACATCGAGTTCTGGTGCGGGGATGCAACAAATGTTTCACGCCGCTTTTCATGGGGACTAGGAATGAGGTTTAGCGCAAAGAGTGATCTCTCCACTGGTAATATGGTTCATGCGAGCTACTTGCTCACATCTGGAGACCTGAGATTCCTCTTCACCGCACCATATTCTCCCTCCCTGTCAGCTGGTGAAGCTCAGCCTTCAGCAACTGCAAGTATCCCTTCGTTTGATCATGCATCGTGCAGGTCTTTCTTCAGTTCACATGGACTCGGCGTCAGAGCAGTAGCGATCGAAGTAGAGGATGCTGAATCAGCTTTCTCCATATCTGTCGCCAACGGCGCGGTGCCTTCTTCTCCACCAAACGTCTTGAATGGTGCTGTTACCATTGCTGAGGTGAAGCTGTACGGAGATGTTGTTTTAAGATATGTTTCATATTACAATGGGACCGTTTCTTTTCTTCCCGGCTTTGAATCTGTTGATGATACTTCTTCCTTCCCTCTTGATTATGGGATCAGGCGGCTGGACCACGCCGTCGGCAACGTGCCGGAGTTAGGTCCTGCTTTGACATATCTTGCCGGCTTCACTGGATTCCATCAATTTGCAGAGTTTACGGCTGACGACGTGGGGACCGCGGAGAGTGGGCTGAACTCAGCAGTCTTGGCCAACAATGATGAAATGGTGCTCCTCCCCATCAATGAACCTGTGCATGGAACAAAGAGAAAGTCGCAGATTCAAACATTTTTAGAGCACAATGAGGGAGCTGGGCTACAGCACCTCGCATTGATGTCAGAAGATATTTTTCGAACGTTGAGGGAGATGCGGAAACGATCTGGTGTAGGCGGCTTTGACTTCATGCCATCCCCTCCGCCAACCTACTACAAGAACCTGAAGAAGAGGGTTGGAGACGTCCTTTCCGAGGAGCAAATTGAAGAATGTGAGGAGCTTGGAATTCTGGTGGACAGAGATGATCAAGGAACACTACTTCAGATCTTCACAAAACCATTGGGCGACAGGCCAACGATATTCATTGAGATCATTCAGCGCGTTGGATGCATGAAGCGTGATGAGGAAGGGAAGGTCTACCAGAGTGGCGGTTGTGGTGGATTTGGAAAAGGAAATTTTTCTGAGCTGTTCAAAAGCATAGAAGAGTATGAGAAAACATTGGAGGCCAAGCAGCTTGTTGGTTGA	0	0	0	16	0	0	0	16	100	100	non-resistant (non-resistant plants (scores 68-100))	non-resistant (non-resistant plants (scores 68-100))	Non-resistant	100	0	0	0	16	Non-resistant	100	Grade 0 (classification and statistics of the grade of pesticide damage; number of plants) ([2]; mesotrione 105 g ai/ha): 0; Grade 1 (classification and statistics of the grade of pesticide damage; number of plants) ([2]; mesotrione 105 g ai/ha): 0; Grade 2 (classification and statistics of the grade of pesticide damage; number of plants) ([2]; mesotrione 105 g ai/ha): 0; Grade 3 (classification and statistics of the grade of pesticide damage; number of plants) ([2]; mesotrione 105 g ai/ha): 16; Resistance evaluation [3, 4]: Non-resistant; Scores (pesticide damage) [3, 4]: 100; Classification and statistics of the grade of pesticide damage: Grade 0 (number of plants) [3, 4]: 0; Classification and statistics of the grade of pesticide damage: Grade 1 (number of plants) [3, 4]: 0; Classification and statistics of the grade of pesticide damage: Grade 2 (number of plants) [3, 4]: 0; Classification and statistics of the grade of pesticide damage: Grade 3 (number of plants) [3, 4]: 16; Resistance evaluation [3, 5]: Non-resistant; Scores (pesticide damage) [3, 5]: 100; Classification and statistics of the grade of pesticide damage: Grade 0 (number of plants) [3, 5]: 0; Classification and statistics of the grade of pesticide damage: Grade 1 (number of plants) [3, 5]: 0; Classification and statistics of the grade of pesticide damage: Grade 2 (number of plants) [3, 5]: 0; Classification and statistics of the grade of pesticide damage: Grade 3 (number of plants) [3, 5]: 16
GsHPPDm-F383W-02: nucleotide sequence encoding Gossypium hirsutum HPPD with F383W; vector DBN11740 (nucleic acid, GsHPPDm-F383W-02 Nucleotide Sequence, vector DBN11740) DNA: ATGGTTCAAACAAATCAATCTGGTTCTGGGAATGATTTCAAGCTGGTTGGTTTCTCAAATTTTGTGCGTAGCAATCCCAAATCAGACCGCTTCACGGTCAAGAGATTCCACCACATTGAATTTTGGTGCACTGATGCCACTAATGTGGCGAGGAGGTTTTCATGGGGTTTAGGGATGCAGTTCGTCGCCAAGAGTGACCTCTCCACAGGAAATTTGACGCATGCAAGCTACCTGCTGCGGAGCCGCGACTTGAATTTCCTGTTTACAGCACCATATTCACCCAGTATTGCAGTTGCTCAAAACCTTTCGCCACAAAGCACTGCTTCCATACCTTCATTTGATCACTCGCTTTGTCGGTCCTTTGCTGCAACACATGGACTTGGCGTCAGAGCAATTGCCATCGAGGTGGACGACGCCGAAACTGCCTTCACCACGAGCGTGACACATGGCGCGCTCCCTTTTTGTCCACCAACACCACTAGGAGATGTGGCTACAATTGCTGAAGTTAAATTATATGGTGATGTTGTGCTCAGATATGTTTCTTACACCACAACCATCAACTCCGACCATGATTTTCTGCCTGGTTTTGAGAAGATTGAAGATACTCTATCGTATCCTTTGGATTATGGCCTGCGTCGGCTCGATCATGCTGTTGGCAACGTACCTGAATTAGGTCCTGCTGTATCTTATGTGAAATCTTTTACTGGGTTCCATGAGTTTGCAGAGTTCACCGCTGAGGATGTAGGAACAAGTGAATCTGGGCTGAACTCAGTTGTTTTGGCCAACAATGAGGAAATGGTCCTCTTACCAATGAACGAGCCGGTGTTCGGCACTAAGCGCAAATCTCAAATACAGACCTACTTGGAGCACAATGAAGGAGCTGGTGTGCAGCACCTCGCCCTCGTCTCGGAGGACATCTTCAAAACTTTAAGGGAGATGAGGAAACGATCCTTTGTGGGAGGATTTGAATTCATGCCTTCTCCGCCGCCGACATACTACAAGAAGCTCAAGCAGCGCGCGGGGGACATTTTGTCTGATGAGCAGATCAAGGAGTGTGAAGAGCTTGGGATTCTTGTTGATAGAGATGATCAAGGAACGCTTCTGCAGATATTTACCAAGCCCGTCGGCGACCGGCCTACTATATGGATTGAGATCATCCAGAGAATTGGTTGCATGGTGAAGGATGAAGAAGGGAAACAGTACCAGAAGGGCGGCTGCGGCGGGTTTGGAAAAGGAAACTTCAGTGAGCTGTTTAAAAGTATAGAGGAGTATGAAAAGAGCTTGGAAGCAAAACAATCACAAAATCCATGA	0	3	9	4	0	0	0	16	69	100	non-resistant (non-resistant plants (scores 68-100))	non-resistant (non-resistant plants (scores 68-100))	Non-resistant	100	0	0	0	16	Non-resistant	100	Grade 0 (classification and statistics of the grade of pesticide damage; number of plants) ([2]; mesotrione 105 g ai/ha): 0; Grade 1 (classification and statistics of the grade of pesticide damage; number of plants) ([2]; mesotrione 105 g ai/ha): 0; Grade 2 (classification and statistics of the grade of pesticide damage; number of plants) ([2]; mesotrione 105 g ai/ha): 0; Grade 3 (classification and statistics of the grade of pesticide damage; number of plants) ([2]; mesotrione 105 g ai/ha): 16; Resistance evaluation [3, 4]: Non-resistant; Scores (pesticide damage) [3, 4]: 73; Classification and statistics of the grade of pesticide damage: Grade 0 (number of plants) [3, 4]: 0; Classification and statistics of the grade of pesticide damage: Grade 1 (number of plants) [3, 4]: 2; Classification and statistics of the grade of pesticide damage: Grade 2 (number of plants) [3, 4]: 9; Classification and statistics of the grade of pesticide damage: Grade 3 (number of plants) [3, 4]: 5; Resistance evaluation [3, 5]: Non-resistant; Scores (pesticide damage) [3, 5]: 100; Classification and statistics of the grade of pesticide damage: Grade 0 (number of plants) [3, 5]: 0; Classification and statistics of the grade of pesticide damage: Grade 1 (number of plants) [3, 5]: 0; Classification and statistics of the grade of pesticide damage: Grade 2 (number of plants) [3, 5]: 0; Classification and statistics of the grade of pesticide damage: Grade 3 (number of plants) [3, 5]: 16
